Data: paper PMC3305377, “Insights into the structure and activity of prototype foamy virus RNase H”

Target: PFV PR-RT (protease-reverse transcriptase) (prototype foamy virus, UniProt P14350 1-751)
Experiment: fluorescence anisotropy; 10 mM EDTA, no Mg2+; 5 nM substrate; 50 mM Tris/HCl pH 8.0, 80 mM KCl, 10 mM EDTA, 0.5 mM DTT, 25 C
Conditions: protein: recombinant; label: 5'-DY647 on RNA; 24 bp hybrid; RNA template overhangs 5' 5 nt and 3' 11 nt

B1: 24/40-mer DNA/RNA primer/template (DNA:RNA)
RNA: CUAAUUCCGCUUUCCCCUCUCCUGGUGAUCCUUUCCAUCC
DNA: ATCACCAGGAGAGGGGAAAGCGGA
B1 was tested, and the Kd was 9.1 ± 1.7 nM.
